Assays:
[1] = molecular target: recombinant human CD39 ectodomain with C-terminal His6x tag (human) (UniProt P49961); assay: BLI (Octet RED96), rabbit IgG hcAb on protein A biosensor, recombinant CD39 ectodomain as analyte
[2] = molecular target: recombinant human CD39 ectodomain with C-terminal His6x tag (human) (UniProt P49961); assay: BLI (Octet RED96), rabbit IgG hcAb on protein A biosensor, recombinant CD39 ectodomain as analyte at 200 ng/µl
human CD39 (gene ID 953) = molecular target: T1, human CD39 (gene ID 953) (human, UniProt P49961 5-510); assay: flow cytometry, rabbit IgG hcAb supernatant on transfected HEK cells
T1 construct: Cell-surface form: transiently or stably transfected HEK cells, PBMCs, AML cell lines; also called native CD39; human CD39 transfected HEK cells
T1 sequence: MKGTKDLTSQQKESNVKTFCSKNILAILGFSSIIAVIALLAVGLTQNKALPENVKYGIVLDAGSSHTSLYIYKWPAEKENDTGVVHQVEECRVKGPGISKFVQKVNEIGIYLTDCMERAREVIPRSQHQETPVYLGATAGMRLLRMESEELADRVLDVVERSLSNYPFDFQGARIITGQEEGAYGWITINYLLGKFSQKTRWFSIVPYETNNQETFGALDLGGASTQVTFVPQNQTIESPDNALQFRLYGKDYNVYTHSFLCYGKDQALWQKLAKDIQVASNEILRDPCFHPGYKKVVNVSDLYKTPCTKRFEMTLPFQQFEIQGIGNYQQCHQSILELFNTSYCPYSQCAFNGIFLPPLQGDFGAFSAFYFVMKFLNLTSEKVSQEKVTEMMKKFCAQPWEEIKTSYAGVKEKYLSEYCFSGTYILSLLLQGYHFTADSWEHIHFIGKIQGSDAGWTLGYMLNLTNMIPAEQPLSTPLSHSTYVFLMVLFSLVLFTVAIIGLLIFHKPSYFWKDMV

B1: SB28 rabbit IgG hcAb (Fc fusion, not shown: a dimerising Fc or GST)
VHH: QVQLVESGGGLVQPGGSLRLSCAASGSIFNFNAMGWYRQAPGKQRELVAAITSGGSTNYADSVKGRFTISRDNAKNTVYLQMNSLKPEDTAVYYCHGIGGSTWFGEEEYDYWGQGTQVTVSS
notes: also called family 1
koff [1]: 0.0003 s⁻¹
koff [2]: 0.00039 s⁻¹
binding result (human CD39 (gene ID 953)): binds

Reference: patent publication US20240352144A1 (UNIVERSIT TSKLINIKUM HAMBURG EPPENDORF, published 2024)
